Data from US20100286365A1.

Target: GLP-1 receptor (GLP-1 cyclase assay of Example 11) (UniProt P32301)
Assay: cell-based or functional assay

GLP-1 receptor (GLP-1 cyclase assay of Example 11), sequence (P32301 22-463 limits assumed): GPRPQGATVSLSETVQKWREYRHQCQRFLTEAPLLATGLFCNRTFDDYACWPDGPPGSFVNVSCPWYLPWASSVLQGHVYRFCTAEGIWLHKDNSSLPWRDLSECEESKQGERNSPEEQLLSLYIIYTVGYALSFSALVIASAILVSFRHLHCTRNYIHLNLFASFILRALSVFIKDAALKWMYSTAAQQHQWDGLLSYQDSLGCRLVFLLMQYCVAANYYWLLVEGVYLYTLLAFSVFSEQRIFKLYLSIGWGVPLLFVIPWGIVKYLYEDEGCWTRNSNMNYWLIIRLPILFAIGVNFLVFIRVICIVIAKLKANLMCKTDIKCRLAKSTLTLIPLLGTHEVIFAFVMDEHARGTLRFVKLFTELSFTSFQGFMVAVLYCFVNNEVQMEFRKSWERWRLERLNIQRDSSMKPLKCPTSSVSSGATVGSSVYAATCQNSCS

Substance: [^14Leu,^28Gln]Exendin-4-(1-32)-fGLP-1-(33-37)-miniPEG-(S)-2,6-diamino-1-(pyrrolidin-2-cyano-1-yl)hexan-1-amide (peptide)
- GLP Cyclase EC50: 17 pM
